Results: paper PMC9482650, “Quantitative fragmentomics allow affinity mapping of interactomes” (Nature Communications, 2022)

What was measured:
Assay in all cases: holdup assay
Parameters in all cases: key: below the threshold = too weak to quantify, mostly under pKd 3.1 to 4
Settings in all cases: plain residues with an end cap or a label only (N-terminal biotin on a linker: ttds)
Inadl_5, Q8NI35 = target: Inadl_5, Q8NI35
DLG1_3, Q12959 = target: DLG1_3, Q12959
LIN7A, O14910 = target: T1, LIN7A, O14910
T1 sequence (O14910 103-200, limits assumed, looked up): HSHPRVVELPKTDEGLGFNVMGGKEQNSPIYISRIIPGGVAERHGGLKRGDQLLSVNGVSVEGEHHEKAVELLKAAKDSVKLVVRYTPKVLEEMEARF

SYNJ2BP, P57105 = target: T2, SYNJ2BP, P57105
T2 sequence (P57105 8-110, limits assumed, looked up): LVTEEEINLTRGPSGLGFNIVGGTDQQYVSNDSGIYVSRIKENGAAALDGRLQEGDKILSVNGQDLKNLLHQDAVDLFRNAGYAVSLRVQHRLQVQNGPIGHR

GORASP2, Q9H8Y8 = target: GORASP2, Q9H8Y8
DFNB31_2, Q9P202 = target: T3, DFNB31_2, Q9P202
T3 sequence (Q9P202 274-371, limits assumed, looked up): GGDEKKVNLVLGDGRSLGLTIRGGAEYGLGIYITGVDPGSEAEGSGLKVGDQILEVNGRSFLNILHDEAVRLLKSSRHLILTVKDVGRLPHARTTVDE

ARHGEF11, O15085 = target: T4, ARHGEF11, O15085
T4 sequence (O15085 42-136, limits assumed, looked up): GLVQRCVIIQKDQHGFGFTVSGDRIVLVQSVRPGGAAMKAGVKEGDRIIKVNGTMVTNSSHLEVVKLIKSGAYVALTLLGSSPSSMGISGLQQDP

PDZRN3_1, Q9UPQ7 = target: T5, PDZRN3_1, Q9UPQ7
T5 sequence (Q9UPQ7 244-349, limits assumed, looked up): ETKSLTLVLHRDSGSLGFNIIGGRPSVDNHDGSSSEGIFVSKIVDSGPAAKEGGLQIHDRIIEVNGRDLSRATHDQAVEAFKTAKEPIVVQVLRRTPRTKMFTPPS

APBA2_1, Q99767 = target: T6, APBA2_1, Q99767
T6 sequence (Q99767 563-664, limits assumed, looked up): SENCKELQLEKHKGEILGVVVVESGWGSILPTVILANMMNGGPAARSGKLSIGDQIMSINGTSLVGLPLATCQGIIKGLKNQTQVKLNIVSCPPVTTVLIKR

NHERF3_4, Q5T2W1 = target: T7, NHERF3_4, Q5T2W1
T7 sequence (Q5T2W1 373-468, limits assumed, looked up): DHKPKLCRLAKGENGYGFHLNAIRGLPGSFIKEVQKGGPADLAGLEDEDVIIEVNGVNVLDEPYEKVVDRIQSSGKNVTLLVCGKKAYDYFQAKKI

DLG4_3, P78352 = target: DLG4_3, P78352
DLG4_3, P78352, sequence (P78352 306-403): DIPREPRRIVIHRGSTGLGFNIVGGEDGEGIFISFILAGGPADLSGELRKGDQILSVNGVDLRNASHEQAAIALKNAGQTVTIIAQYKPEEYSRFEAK

GRASP, Q7Z6J2 = target: GRASP, Q7Z6J2
GRASP, Q7Z6J2, sequence (Q7Z6J2 96-193): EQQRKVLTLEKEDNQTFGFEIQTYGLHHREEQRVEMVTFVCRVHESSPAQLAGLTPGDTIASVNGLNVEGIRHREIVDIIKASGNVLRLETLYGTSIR

FRMPD4, Q14CM0 = target: FRMPD4, Q14CM0
FRMPD4, Q14CM0, sequence (Q14CM0 67-160): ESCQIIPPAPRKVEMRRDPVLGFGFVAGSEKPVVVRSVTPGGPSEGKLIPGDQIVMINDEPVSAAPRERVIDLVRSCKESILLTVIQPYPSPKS

Inadl_6, Q8NI35 = target: Inadl_6, Q8NI35
Inadl_6, Q8NI35, sequence (Q8NI35 1058-1167): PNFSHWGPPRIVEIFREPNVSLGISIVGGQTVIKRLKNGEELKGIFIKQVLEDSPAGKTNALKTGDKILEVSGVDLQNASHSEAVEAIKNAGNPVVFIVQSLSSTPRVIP

Inadl_1, Q8NI35 = target: Inadl_1, Q8NI35
Inadl_1, Q8NI35, sequence (Q8NI35 113-229): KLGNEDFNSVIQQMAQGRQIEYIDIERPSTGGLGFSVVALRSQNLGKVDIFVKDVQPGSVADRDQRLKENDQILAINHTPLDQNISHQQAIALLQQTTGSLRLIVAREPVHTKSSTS

DLG3_1, Q92796 = target: T8, DLG3_1, Q92796
T8 sequence (Q92796 125-227, limits assumed, looked up): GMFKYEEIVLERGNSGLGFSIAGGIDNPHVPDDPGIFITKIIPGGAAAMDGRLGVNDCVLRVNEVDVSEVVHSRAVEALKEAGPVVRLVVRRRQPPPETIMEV

NHERF2_2, Q15599 = target: NHERF2_2, Q15599
NHERF2_2, Q15599, sequence (Q15599 142-238): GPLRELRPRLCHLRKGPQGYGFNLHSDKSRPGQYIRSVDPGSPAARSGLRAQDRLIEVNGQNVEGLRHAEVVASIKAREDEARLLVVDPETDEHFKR

MAGI1_2, Q96QZ7 = target: MAGI1_2, Q96QZ7
MAGI1_2, Q96QZ7, sequence (Q96QZ7 456-580): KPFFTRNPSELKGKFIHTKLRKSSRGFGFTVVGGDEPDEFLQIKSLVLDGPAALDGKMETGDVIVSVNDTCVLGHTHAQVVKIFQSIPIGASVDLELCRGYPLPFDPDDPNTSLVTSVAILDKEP

PCLO, Q9Y6V0 = target: T9, PCLO, Q9Y6V0
T9 sequence (Q9Y6V0 4491-4600, limits assumed, looked up): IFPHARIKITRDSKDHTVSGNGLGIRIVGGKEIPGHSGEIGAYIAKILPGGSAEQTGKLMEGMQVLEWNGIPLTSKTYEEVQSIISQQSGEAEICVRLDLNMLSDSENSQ

Inadl_10, Q8NI35 = target: Inadl_10, Q8NI35
Inadl_10, Q8NI35, sequence (Q8NI35 1673-1763): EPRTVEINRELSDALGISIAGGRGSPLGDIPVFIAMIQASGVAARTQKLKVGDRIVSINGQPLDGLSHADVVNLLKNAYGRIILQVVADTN

DLG3_3, Q92796 = target: T10, DLG3_3, Q92796
T10 sequence (Q92796 374-475, limits assumed, looked up): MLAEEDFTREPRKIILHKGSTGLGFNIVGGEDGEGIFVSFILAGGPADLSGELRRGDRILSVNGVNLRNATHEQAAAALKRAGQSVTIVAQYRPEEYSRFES

DLG1_1, Q12959 = target: DLG1_1, Q12959
NHERF3_1, Q5T2W1 = target: T11, NHERF3_1, Q5T2W1
T11 sequence (Q5T2W1 4-100, limits assumed, looked up): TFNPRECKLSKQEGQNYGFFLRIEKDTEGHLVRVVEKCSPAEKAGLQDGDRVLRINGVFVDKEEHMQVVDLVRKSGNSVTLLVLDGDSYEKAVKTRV

GRIP2_6, Q9C0E4 = target: GRIP2_6, Q9C0E4
GRIP2_6, Q9C0E4, sequence (Q9C0E4 648-740): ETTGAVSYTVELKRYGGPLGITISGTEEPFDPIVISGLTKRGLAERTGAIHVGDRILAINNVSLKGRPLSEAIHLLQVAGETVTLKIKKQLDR

RAPGEF6, Q8TEU7 = target: T12, RAPGEF6, Q8TEU7
T12 sequence (Q8TEU7 525-625, limits assumed, looked up): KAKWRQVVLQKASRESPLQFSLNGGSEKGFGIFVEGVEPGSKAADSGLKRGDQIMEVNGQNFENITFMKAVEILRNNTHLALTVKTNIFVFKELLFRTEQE

Inadl_5, Q8NI35, sequence (Q8NI35 673-780): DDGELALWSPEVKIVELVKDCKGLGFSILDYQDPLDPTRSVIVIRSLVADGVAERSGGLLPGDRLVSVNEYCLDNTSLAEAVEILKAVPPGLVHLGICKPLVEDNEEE

B1: ABCC4, O15439 (peptide)
chain: STLTIFETAL
In the case of B1, the pKd (Inadl_5, Q8NI35) is reported as “below the threshold”, the pKd (DLG1_3, Q12959) is reported as 4.38 and the pKd (LIN7A, O14910) is reported as 3.66. For the same binder, the pKd (SYNJ2BP, P57105) was 5.56, the pKd (GORASP2, Q9H8Y8) was 3.82 and the pKd (DFNB31_2, Q9P202) was “below the threshold”. For the same binder, the pKd (ARHGEF11, O15085) was 4.93, the pKd (PDZRN3_1, Q9UPQ7) was 5.46 and the pKd (APBA2_1, Q99767) was “below the threshold”. For the same binder, the pKd (NHERF3_4, Q5T2W1) was 4.78, the pKd (DLG4_3, P78352) was 3.85 and the pKd (GRASP, Q7Z6J2) was 4.74. The pKd (FRMPD4, Q14CM0) was 4.64, the pKd (Inadl_6, Q8NI35) was 4.89 and the pKd (Inadl_1, Q8NI35) was 3.53. It also gave a pKd (DLG3_1, Q92796) of 3.84, a pKd (NHERF2_2, Q15599) of 5.07 and a pKd (MAGI1_2, Q96QZ7) of 3.86. For the same binder, the pKd (PCLO, Q9Y6V0) was “below the threshold”, the pKd (Inadl_10, Q8NI35) was 3.52 and the pKd (DLG3_3, Q92796) was 3.83. The pKd (DLG1_1, Q12959) was 4.46, the pKd (NHERF3_1, Q5T2W1) was 6.21 and the pKd (GRIP2_6, Q9C0E4) was “below the threshold”. The pKd (RAPGEF6, Q8TEU7) was “below the threshold”.
